Test results from patent US20170355769A1 (AbbVie / Abbott, published 2017).
Like-named read-outs stand apart in the source and are kept apart here.

Experiments:
Human full length B7-H3 [1] = target: T1, Human full length B7-H3 (human, UniProt Q5ZPR3 29-534); experiment: FACS, NCI-H1650 cells
T1 construct: On 3T12 fibroblasts expressing full length human B7-H3 or on NCI-H1650 cells; signal peptide residues 1-28 stated; also called huB7-H3; CD276
T1 sequence: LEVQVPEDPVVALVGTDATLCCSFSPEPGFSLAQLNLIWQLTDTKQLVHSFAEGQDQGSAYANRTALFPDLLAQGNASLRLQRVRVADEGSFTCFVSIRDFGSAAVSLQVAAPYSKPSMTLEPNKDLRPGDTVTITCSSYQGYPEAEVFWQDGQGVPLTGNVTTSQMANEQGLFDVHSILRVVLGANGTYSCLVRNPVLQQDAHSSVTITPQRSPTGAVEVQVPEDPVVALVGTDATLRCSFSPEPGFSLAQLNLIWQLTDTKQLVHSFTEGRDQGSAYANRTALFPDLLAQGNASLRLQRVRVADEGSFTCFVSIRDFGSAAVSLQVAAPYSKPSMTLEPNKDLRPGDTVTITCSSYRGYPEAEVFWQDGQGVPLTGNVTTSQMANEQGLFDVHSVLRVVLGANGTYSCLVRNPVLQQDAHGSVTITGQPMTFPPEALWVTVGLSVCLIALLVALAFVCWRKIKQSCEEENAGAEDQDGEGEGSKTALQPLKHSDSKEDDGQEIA
Protocol: To generate purified chimeric antibodies, expression vectors were transiently transfected into HEK293 6E suspension cell cultures in a ratio of 60% to 40% light to heavy chain construct. 1 mg/ml of polyethylenimine (PEI) or 2.6 μL/mL of Expifectamine was used to transfect the cells. Cell supernatants were harvested after five days in shaking flasks, spun down to pellet cells, and filtered through 0.22 μm filters to separate IgG from culture contaminants. Antibody-containing supernatants were purified on Akta Pure using protein A mAb SelectSure. Columns were equilibrated in PBS pH 7.4, supernatants were then passed through the column and a wash was performed with PBS pH 7.4. IgG were eluted with 0.1 M acetic acid pH 3.5 and collected in several aliquots. Fractions containing IgG were pooled and dialyzed in PBS overnight at 4° C.
(§1) Cells were harvested from flasks when approximately 80% confluent using Gibco® Cell Dissociation Buffer. Cells were washed once in PBS/1% FBS (FACS buffer) then resuspended at 2.5×10⁶ cells/mL in FACS buffer. 100 μL of cells/well were added to a round bottom 96-well plate. 10 μL of a 10× concentration of mAb/ADC (final concentrations are indicated the figures). Wells were washed twice with FACS buffer and resuspended in 50 μL of secondary Ab (AlexaFluor 488) diluted in FACS buffer. The plate was incubated at 4° C. for one hour and washed twice with FACS buffer. Cells were resuspended in 100 μL of PBS/1% formaldehyde and analyzed on a Becton Dickinson LSRII flow cytometer. Data was analyzed using WinList flow cytometry analysis software.

Human full length B7-H3 [2] = target: T1, Human full length B7-H3; experiment: FACS, cell surface human B7-H3 (as Example 6)
Protocol: as §1
Nine anti-B7-H3 chimeric antibodies were conjugated to the Bcl-xL inhibiting (Bcl-xLi) synthon CZ (Example 2.1) using conjugation Method A described below. The resulting ADCs (anti-B7-H3 antibodies conjugated to synthon CZ) were tested for binding to cell surface human B7-H3 by FACS (as described in Example 6) and for cell cytotoxicity in cell lines expressing B7-H3. […] Table 6 provides cell surface binding and cytotoxicity activity of anti-B7-H3 chimera ADCs against breast cancer cell HCC38 expressing human B7-H3.

[3] = target: T2, Human B7-H3-ECD (His tag) (human, UniProt Q5ZPR3 29-461); experiment: SPR Biacore, naked mAb
T2 construct: SPR analyte; also called huB7-H3; soluble ECD of human B7-H3
T2 sequence: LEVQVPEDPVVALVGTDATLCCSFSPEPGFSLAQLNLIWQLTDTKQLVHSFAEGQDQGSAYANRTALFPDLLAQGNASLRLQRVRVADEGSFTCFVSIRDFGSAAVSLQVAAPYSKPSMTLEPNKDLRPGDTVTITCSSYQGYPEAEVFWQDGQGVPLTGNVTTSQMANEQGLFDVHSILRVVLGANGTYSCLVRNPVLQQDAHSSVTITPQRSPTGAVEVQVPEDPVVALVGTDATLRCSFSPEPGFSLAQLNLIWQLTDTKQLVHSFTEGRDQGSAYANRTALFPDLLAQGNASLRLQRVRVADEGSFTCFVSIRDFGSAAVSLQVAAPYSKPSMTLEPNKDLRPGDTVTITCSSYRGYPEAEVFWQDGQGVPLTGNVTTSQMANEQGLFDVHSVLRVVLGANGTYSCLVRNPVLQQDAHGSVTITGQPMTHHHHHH
Excerpt: (§2) Biacore T200 SPR instruments were used to measure the binding kinetics of human B7-H3 (analyte) binding to various mAbs (ligands). The assay format was Fc-based capture via immobilized anti-mouse (Fc) (Pierce 31170) or immobilized anti-human (Fc) (Pierce 31125). A standard amine coupling protocol was employed to immobilize the capture reagents via primary amines to the carboxy-methyl (CM) dextran surface of CM5 sensorchips (Biacore); capture antibodies were coupled to a level of approximately 5000RU. For binding kinetic measurements the assay buffer was HBS-EP+ (Biacore): 10 mM Hepes, pH7.4, 150 mM NaCl, 3 mM EDTA, 0.05% polysorbate 20. During the assay, all measurements were referenced against the capture surface alone. Each assay cycle consisted of the following steps: 1) Capture of ligand to approximately 50RU; 2) Analyte injection over both reference and test surface, 240 μL at 80 μL/min, after which the dissociation was monitored for 900 seconds at 80 μL/min; 3) Regeneration of capture surface with low pH glycine. […] Data were processed and fit to a 1:1 binding model using Biacore T200 Evaluation Software to determine the binding kinetic rate constants, kₐ (on-rate) and kd (off-rate), and the equilibrium dissociation constant (affinity, KD).
(§3) The parental chAb18 from which the variants were derived was also tested as a comparator.

Human full length B7-H3 [4] = target: T1, Human full length B7-H3; experiment: FACS (Example 6 method)
Protocol: as §1, §3

[5] = target: T2, Human B7-H3-ECD (His tag); experiment: SPR Biacore, naked mAb; remark: listed apart in the source
Excerpt: as §2
These variants were further characterized for binding by SPR and as ADCs conjugated to the Bcl-xL inhibitor synthon (linker warhead) CZ. […] An ADC comprising chAb3 conjugated to synthon CZ was used as a control.

B1: chAb16 (antibody, IgG1, V domains shown)
VH: EVKLLESGGGLVQPGGSLKLSCAASGFDFSRYWMSWVRQAPGKGLEWIGEINPDSSTINYTPSLKDKFIISRDNAKNTLYLQMSKVRSEDTALYYCARPGFGNYIYAMDYWGQGTSVTVSS
VL: DIQMTQTTSSLSASLGDRVTINCRASQDISNFLNWYQQKPDGTVKLLIYYTSRLYLGVPSRFSGSGSGTDYSLTISNLEQEDIATYFCQQGNTLPPTFGGGTKLEIK
notes: chimeric, huIgG1/k
In the case of B1, the EC50 (Human full length B7-H3 [1]) is reported as 0.27 nM.

B2: chAb6-CZ (antibody, IgG1, V domains shown)
VH: QVQLQQSGAELMKPGASVKISCKATGYTFSRYWIEWVKQRPGHGLEWIGEILPGSGSTNYNEKFKGKATFTADTSSNTAYMQVSSLTSEDSAVHYCARRGYGYVPYALDYWGQGTSVTVSS
VL: EIQMTQTTSSLSASLGDRVTISCRASQDISNSLNWYQQKPDGTVNLLIYYTSRLYSGVPSRFSGSGSGTDYSLTISNLEQEDIATYFCQQGNTLPYTFGGGTKLEIK
modifications: synthon CZ on reduced interchain Cys
Binder B2 has an EC50 (Human full length B7-H3 [2]) of 0.56 nM.

B3: chAb16-CZ (antibody, IgG1, V domains shown)
VH: EVKLLESGGGLVQPGGSLKLSCAASGFDFSRYWMSWVRQAPGKGLEWIGEINPDSSTINYTPSLKDKFIISRDNAKNTLYLQMSKVRSEDTALYYCARPGFGNYIYAMDYWGQGTSVTVSS
VL: DIQMTQTTSSLSASLGDRVTINCRASQDISNFLNWYQQKPDGTVKLLIYYTSRLYLGVPSRFSGSGSGTDYSLTISNLEQEDIATYFCQQGNTLPPTFGGGTKLEIK
modifications: synthon CZ on reduced interchain Cys
With B3 the EC50 (Human full length B7-H3 [2]) was 0.62 nM.

B4: chAb11-CZ (antibody, IgG1, V domains shown)
VH: EVKLVESGGGLVQPGGSLRLSCATSGFTFTNYYMSWVRQPPGKALEWLGFIRNKANDYTTEYSASVKGRFTISRDNSQSILYLQMNTLRAEDSATYYCARESPGNPFAYWGQGTLVTVSA
VL: DIVMTQSPSSLTVTAGEKVTMTCKSSQSLLNSGTQKNFLTWYQQKPGQPPKLLIYWASTRESGVPDRFTGSGSGTDFTLTISSVQAEDLAVYFCQNDYIYPLTFGAGTKLELK
modifications: synthon CZ on reduced interchain Cys
With B4 the EC50 (Human full length B7-H3 [2]) was 1.12 nM.

B5: chAb2-CZ (antibody, IgG1, V domains shown)
VH: QVQLQQPGAELVKPGASVKLSCKASGYTFTSYWMHWVKQRPGQGLEWIGMIHPDSGTTNYNEKFRSKATLTVDKSSSTAYMQLSSLTSEDSAVYYCAVYYGSTYWYFDVWGTGTTVTVSS
VL: DVVMTQTPLSLPVSLGDQAYISCRSSQSLVHINGNTYLHWYRQKPGQSPKLLIYKVSNRFSGVPDRFSGSGSGTDFTLKISRVEAEDLGVYFCSQSTHFPFTFGSGTKLEIK
modifications: synthon CZ on reduced interchain Cys
Work on B5 yielded an EC50 (Human full length B7-H3 [2]) of 2.6 nM.

B6: chAb14 (antibody, IgG1, V domains shown)
VH: EVKLVESGGGLVKPGGSLKLSCAASGFTFSSYGMSWVRQTPEKRLEWVATISGGGTNTYYPDSVEGRFTISRDNAKNFLYLQMSSLRSEDTALYYCARHYGSQTMDYWGQGTSVTVSS
VL: DIQMTQSPASLSASVGETVTITCRTSGNIHNYLTWYQQKQGKSPQLLVYNAKTLADGVPSRFSGSGSGTQFSLKINSLQPEDFGSYYCQHFWSIMWTFGGGTKLEIK
notes: chimeric, huIgG1/k
In the case of B6, the EC50 (Human full length B7-H3 [1]) is reported as 0.81 nM.

B7: chAb14-CZ (antibody, IgG1, V domains shown)
VH: EVKLVESGGGLVKPGGSLKLSCAASGFTFSSYGMSWVRQTPEKRLEWVATISGGGTNTYYPDSVEGRFTISRDNAKNFLYLQMSSLRSEDTALYYCARHYGSQTMDYWGQGTSVTVSS
VL: DIQMTQSPASLSASVGETVTITCRTSGNIHNYLTWYQQKQGKSPQLLVYNAKTLADGVPSRFSGSGSGTQFSLKINSLQPEDFGSYYCQHFWSIMWTFGGGTKLEIK
modifications: synthon CZ on reduced interchain Cys
For B7, the EC50 (Human full length B7-H3 [2]) was 0.5 nM.

B8: chAb18 (antibody, IgG1, V domains shown)
VH: QVQLQQSAAELARPGASVKMSCKASGYSFTSYTIHWVKQRPGQGLEWIGYINPNSRNTDYNQKFKDETTLTADRSSSTAYMQLISLTSEDSAVYYCARYSGSTPYWYFDVWGAGTTVTVSS
VL: QIVLTQSPAILSASPGEKVTMTCRASSSVSYMNWYQQKPGSSPKPWIYATSNLASGVPARFSVSVSGTSHSLTISRVEAEDAATYYCQQWSSNPLTFGAGTKLELK
notes: chimeric, huIgG1/k
With B8 the EC50 (Human full length B7-H3 [1]) was 1.14 nM and the Kd [3] was 0.17 nM.

B9: chAb18-CZ (antibody, IgG1, V domains shown)
VH: QVQLQQSAAELARPGASVKMSCKASGYSFTSYTIHWVKQRPGQGLEWIGYINPNSRNTDYNQKFKDETTLTADRSSSTAYMQLISLTSEDSAVYYCARYSGSTPYWYFDVWGAGTTVTVSS
VL: QIVLTQSPAILSASPGEKVTMTCRASSSVSYMNWYQQKPGSSPKPWIYATSNLASGVPARFSVSVSGTSHSLTISRVEAEDAATYYCQQWSSNPLTFGAGTKLELK
modifications: synthon CZ on reduced interchain Cys
B9 showed an EC50 (Human full length B7-H3 [4]) of 1.14 nM and an EC50 (Human full length B7-H3 [2]) of 1.78 nM.

B10: huAb3v1 (antibody, V domains shown)
VH: EVQLVQSGAEVKKPGSSVKVSCKASGYTFSSYWMHWVRQAPGQGLEWMGLIHPDSGSTNYNEMFKNRVTITADKSTSTAYMELSSLRSEDTAVYYCARGGRLYFDYWGQGTTVTVSS
VL: DIVMTQSPLSLPVTPGEPASISCRSSQSLVHSNGDTYLRWYLQKPGQSPQLLIYKVSNRFSGVPDRFSGSGSGTDFTLKISRVEAEDVGVYYCSQSTHVPYTFGGGTKVEIK
notes: humanized IgG
In the case of B10, the Kd [5] is reported as 0.52 nM.

B11: huAb3v5 (antibody, V domains shown)
VH: EVQLVQSGAEVKKPGSSVKVSCKASGYTFSSYWMHWVRQAPGQGLEWIGLIHPDSGSTNYNEMFKNRATLTVDRSTSTAYMELSSLRSEDTAVYYCAGGGRLYFDYWGQGTTVTVSS
VL: DVVMTQSPLSLPVTPGEPASISCRSSQSLVHSNGDTYLRWYLQKPGQSPQLLIYKVSNRFSGVPDRFSGSGSGTDFTLKISRVEAEDVGVYYCSQSTHVPYTFGGGTKVEIK
notes: humanized IgG
For B11, the Kd [5] was 0.23 nM.

B12: chAb4-CZ (antibody, IgG1, V domains shown)
VH: QVQLQQPGAELVKPGASVKLSCKASGYSFTSYWMHWVKQRPGQGLEWIGMIHPNSGSNNYNEKFKSKATLTVDKSSNTAYMQLSSLTSEDSAVYYCARRLGLHFDYWGQGTTLTVSS
VL: DIVMTQSQKFMSTPVGDRVSITCKASQNVGTAVAWYQQKPGQSPKLLIYSASNRYTGVPDRFTGSGSGTDFTLTISNMQSEDLADYFCQQYSSYPYTFGGGTKLEIK
modifications: synthon CZ on reduced interchain Cys
B12 gave an EC50 (Human full length B7-H3 [2]) of 0.54 nM.
